Experimental data from patent US20240409645A1.
Where a chain is given by its changes, count along the chain named.

T1: mouse IL-2Rα (mouse) (UniProt P01590)
T1 sequence (looked up): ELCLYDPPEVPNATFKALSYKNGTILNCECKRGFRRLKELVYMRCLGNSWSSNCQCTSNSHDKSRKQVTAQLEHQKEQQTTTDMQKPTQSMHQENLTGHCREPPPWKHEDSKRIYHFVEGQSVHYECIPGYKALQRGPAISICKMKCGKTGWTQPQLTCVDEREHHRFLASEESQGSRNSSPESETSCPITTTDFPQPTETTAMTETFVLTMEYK

B1: 6-MP01G05 VHH-hFc, monospecific monovalent (Fc fusion, part only; not given: Both Fc arms and linker, not shown: another chain or arm of the molecule; a dimerising Fc or GST; small tags and cut ends)
VHH: QVQLQESGGGLVQAGGSLRLSCAASGRTFSSYAMGWFRQAPGKEREFVAVISWNVDNTEYTDSVKGRFTISRDNDKNMVYLQMNSLKPEDTAVYYCAADSIPLSSDMSPTATEYGYWGQGTQVTVSS
B2: 2-MP01A02 VHH-hFc, monospecific monovalent (Fc fusion, part only; not given: Both Fc arms and linker, not shown: another chain or arm of the molecule; a dimerising Fc or GST; small tags and cut ends)
VHH: QVQLVESGGGLVQPGGSLRLSCATSGFTFRNNFMSWVRQAPGKGLEWVSTISYGGESTTYAESVKGRFTISRDNAKNTLYLQMNNLKPEDTAVYYCAKATSYDSIRSGSRGQGTQVTVSS
B3: 3-MP01E03 VHH-hFc, monospecific monovalent (Fc fusion, part only; not given: Both Fc arms and linker, not shown: another chain or arm of the molecule; a dimerising Fc or GST; small tags and cut ends)
VHH: QVQLVESGGGLVQAGGSLRLSCTASGRTLSSYSMAWFRQAADKGREFVTAISSSGVVTHVLDSVKGRFTISRDNAKNTVYLQMNSLQPEDTALYFCAGTASSYSTYEANYNYWGQGTLVTVSS
B4: 5-MP01F05 VHH-hFc, monospecific monovalent (Fc fusion, part only; not given: Both Fc arms and linker, not shown: another chain or arm of the molecule; a dimerising Fc or GST; small tags and cut ends)
VHH: EVQLVESGGGLVQAGGSLRLSCAASIRAFTTWSMAWFRQAPGKEREYVARINVSGSVTYYADFVKGRFTISRDNAKKTMYLEMNNLKPEDTALYYCAADRTGVGTNDYNYWGQGTQVTVSS
B5: 1-MP01H01 VHH-hFc, monospecific monovalent (Fc fusion, part only; not given: Both Fc arms and linker, not shown: another chain or arm of the molecule; a dimerising Fc or GST; small tags and cut ends)
VHH: EVQLVESGGGLVQAGGSLRLSCAASGRTFRTHNMGWFRRAPGKEREFVAAISWNVDNTLYADSVKGRFTISRDNGRNMVYLQMNSLKPEDTAVYYCAADNIPLSSDVAATATEYDYWGQGTQVTVSS
B6: 4-MP01F04 VHH-hFc, monospecific monovalent (Fc fusion, part only; not given: Fc arms with stated mutations, not shown: another chain or arm of the molecule; a dimerising Fc or GST; small tags and cut ends)
VHH: B5 VHH with E1Q, R27G, H32R, I51V, T58K, V107M, A108R, A109P
B7: FJ1427_P035MP01D09 (VHH)
VHH: B2 VHH with T24A, R30S
B8: FJ1427_P035MP01E11 (VHH)
VHH: B2 VHH with T24A, R30S, G54F, E56D, T59R, A75E, Q112R
B9: FJ1427_P035MP01F08 (VHH)
VHH: EVQLVESGGGWVQPGDSLRLSCAASGRSFRNYVMGWFRQVPGKEREFLSVITSLGGTLDADSVADRFTISRDNSKNTVYLQMDSLKPEDTAVYYCAADRGPARYISASDVDYWGQGTQVTVSS
B10: FJ1427_P035MP01H07 (VHH)
VHH: B3 VHH with Q1E, T23A, S31G, S33A, A40P, A41P, V56I, G98A, T105D
B11: FJ1427_P035MP01H11 (VHH)
VHH: B5 VHH with E1Q, G75D, Y95F, A108R, Y114F, D115G, Q122R
B12: FJ1427_P035MP01D08 (VHH)
VHH: B5 VHH with R27G, H32R, I51V, T58K, D62G, V107M, A108R, A109P
B13: FJ1427_P035MP01H08 (VHH)
VHH: B5 VHH with G10R, A14S, T28A, R30S, T58K, D62N, T69A, V107M, A108R, Y116V
B14: FJ1427_P035MP01A11 (VHH)
VHH: QVQLVESGGGLVQPGGSLRLSCAASGRTFETHNMGWFRRAPGKEREFVAVISWNVDSTEYTDSVKGRFTISRDNDKNMVYLQMNSLKPEDTGVYYCAADNIPLSSDMSPTAAEYGYWGQGTQVTVSS
B15: FJ1427_P035MP01H10 (VHH)
VHH: QVQLVESGGGLVETGGSLRLSCAASGITFNDHTMAWFRQAPGKEREFVAARDWSDIITRYASSVKGRFTISRDNAGNTGFLQMNSLRPEDTAVYYCAAREGGVVAGVRSGAPYDYWGQGTQVTVSS
B16: FJ1427_P035MP01F06 (VHH)
VHH: QLQLVESGGGLVQAGGSLRLSCAASGGAFSRYAVGWFRMAPGKGREFVSAIDLSGTNTHVLDSVKGRFTISRDNDKNTAYLQMDKLQPEDTAVYWCAATSSSYSDYEANYNIWGQGTQVTVSS
B17: FJ1427_P035MP01G10 (VHH)
VHH: B16 VHH with Q1E, L2V
B18: FJ1427_P035MP01E07 (VHH)
VHH: QVQLQESGGGLVQAGDSLRLSCAASGRSFRNYILAWYRQAPGKEREFLAAISWLEGTLYADSVEDRFTISRDNPKNTVHLQMDSLKPEDTAVYYCAADRGPVRPVLAPDVDYWGQGTQVTVSS
B19: FJ1427_P035MP01E10 (VHH)
VHH: B18 VHH with Q5V, E55D
B20: FJ1427_P035MP01F11 (VHH)
VHH: B18 VHH with E55D
B21: FJ1427_P035MP01G07 (VHH)
VHH: B18 VHH with Q5V, A14T, E55D, D65G
B22: FJ1427_P035MP01D11 (VHH)
VHH: B18 VHH with V2L, Q5V, L34M, E55D
B23: FJ1427_P035MP01B12 (VHH)
VHH: B18 VHH with E55D, L58F, D61N, D65G, S84G, S122A

These binders were tested against cynomolgus monkey IL-2Rα/CD25 subunit (cynomolgus monkey) (UniProt H6WS54) (assay: ELISA, monovalent; EC50 cyno vs human subunit).
Chain of cynomolgus monkey IL-2Rα/CD25 subunit (cynomolgus monkey) (H6WS54 entry or part of it): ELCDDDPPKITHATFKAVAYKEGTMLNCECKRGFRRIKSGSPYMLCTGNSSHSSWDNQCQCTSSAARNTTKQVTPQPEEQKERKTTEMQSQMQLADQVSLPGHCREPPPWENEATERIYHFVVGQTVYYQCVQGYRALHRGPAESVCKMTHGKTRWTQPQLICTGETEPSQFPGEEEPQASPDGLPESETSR

Fold change | Binder
1.2 fold | B1
1.3 fold | B2
13.4 fold | B3
1.5 fold | B4
1 fold | B5
1 fold | B6

The binders below were run against T1, mouse IL-2Rα (mouse) (assay: ELISA, P.E. on coated antigen).

OD (PE binding ELISA) | Binder
0.045 OD450 nm | B7
0.046 OD450 nm | B8
0.046 OD450 nm | B9
0.049 OD450 nm | B10
0.047 OD450 nm | B11
0.045 OD450 nm | B12
0.047 OD450 nm | B13
0.046 OD450 nm | B14
0.057 OD450 nm | B15
0.046 OD450 nm | B16
0.046 OD450 nm | B17
0.046 OD450 nm | B18
0.046 OD450 nm | B19
0.047 OD450 nm | B20
0.047 OD450 nm | B21
0.045 OD450 nm | B22
0.046 OD450 nm | B23

These binders were tested against human interleukin-2 receptor α-chain (IL-2Rα; CD25), recombinant protein (human) (UniProt P01589) (assay: ELISA, monovalent VHH-hFc).
Chain of human interleukin-2 receptor α-chain (IL-2Rα; CD25), recombinant protein (human) (P01589 22-240 limits assumed): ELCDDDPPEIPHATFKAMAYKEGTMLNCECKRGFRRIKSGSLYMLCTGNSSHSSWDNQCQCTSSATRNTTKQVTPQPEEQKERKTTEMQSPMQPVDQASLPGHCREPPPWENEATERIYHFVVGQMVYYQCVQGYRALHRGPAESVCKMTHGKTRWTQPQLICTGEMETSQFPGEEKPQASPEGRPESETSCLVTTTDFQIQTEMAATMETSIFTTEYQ

EC50 | Binder
0.27 nM | B1
0.074 nM | B2
0.086 nM | B3
0.088 nM | B4
0.478 nM | B5
0.077 nM | B6

Each binder was assayed against cynomolgus monkey IL-2Rα/CD25 subunit (cynomolgus monkey) (UniProt H6WS54) (assay: ELISA, monovalent VHH-hFc).

EC50 | Binder
0.317 nM | B1
0.096 nM | B2
1.15 nM | B3
0.136 nM | B4
0.498 nM | B5
0.074 nM | B6
